Data taken from patent publication US8703698B2, “Compositions and methods for treating atherosclerosis” (The University of Chicago, priority 2003, dated 2014).

Columns and labels:
THP-1 cells = experiment: Cholesterol efflux from cholesterol-laden human THP-1 cells; assay type: cell-based; settings: liposomal formulations; cholesterol-laden THP-1 cells differentiated with phorbol myristate acetate
Description: These monocytes were differentiated into macrophages with phorbol myristate acetate (100 nM). In these experiments, cholesterol-laden human THP-1 cells were exposed to liposomal formulations comprising a peptide corresponding to amino acids 1-20 of murine SAA2.1 (SEQ ID NO:1), a peptide corresponding to amino acids 74-103 of murine SAA2.1 (SEQ ID NO:4), a peptide corresponding to amino acids 1-20 of murine SAA1.1 plus an arginine at the N-terminus (SEQ ID NO:7), or a peptide corresponding to amino acids 1-20 of murine SAA2.1 (SEQ ID NO:1) and a peptide corresponding to amino acids 74-103 (SEQ ID NO:4) of murine SAA2.1. Results from these experiments are depicted in FIG. 4. […] Studies were carried out to determine whether murine SAA2.1 increases cholesterol export from a human derived monocytic cell line, THP-1 (obtained from American Type Culture Collection, Manassas, Va.; ATCC#TIB-202). Human monocytes were cultured in T-75 flasks with 30 ml RPMI 1640 medium containing 2 mM L-glutamine, 4.5 g/L glucose, 10 mM HEPES, 1.0 mM […] and supplemented with 0.05 mM 2-mercaptoethanol and 10% fetal bovine serum. Subsequently, five million cells were placed in each well of a 6-well tissue culture plate. The monocytes were differentiated into macrophages by treatment with phorbol myristate acetate (100 nM). THP-1 macrophages were enriched with cholesterol by incubating with red blood cells membrane fragments (175 μg as cholesterol) that had been previously labelled with 0.5 μCi/mL[^3H]-cholesterol at 37° C. for 6 hours in 0.2% bovine serum albumin, followed by an overnight equilibration period. Cells were washed four times with PBS/BSA prior to efflux studies. Cells were then incubated at 37° C. with 2 mL RPMI-BSA containing 5% LPDS and 50 μg/mL of either native HDL, SAA-HDL, liposomes containing 2 μmoles of apoA-I, SAA1.1 or 2.1, or liposomes containing 0.5 μmoles synthetic peptides corresponding to amino acid residues 1-20 (SEQ ID NO:1), 21-50 (SEQ ID NO:2), 51-80 (SEQ ID NO:3) or 74-103 (SEQ ID NO:4) of murine SAA2.1. The efflux media were collected at 0, 1, 2, 4, 8, 16 and 24 hours, centrifuged to remove cell debris, and then used to measure the exported counts. […] A portion of the cells was lysed in 0.1N NaOH to estimate both the remaining radioactivity and the cellular protein content. Cellular lipids were extracted from the remaining portion of the cells and analyzed by thin-layer chromatography as described by Mendez et al. (J. Clin. Invest. 1994 94:1698-1705) and Oram et al. (Arterioscler. Thromb. 1991 11:403-414). The radioactivity in appropriate spots was measured to determine total cellular cholesterol counts. Efflux of radioactive label to the medium was calculated as the percentage of total counts (cell+medium counts) in each well.

[1] = test system: cholesterol ester hydrolase; experiment: Rate of hydrolysis of cholesteryl ester in cholesterol-laden J774 cells (cholesterol ester hydrolase activity); assay type: cell-based, murine
Description: Identification of the domain of SAA2.1 that is responsible for enhancing cholesterol ester hydrolase activity was performed in J774 cells preloaded with radio-labeled cholesteryl esters. These experiments were performed in the presence of Sandoz 58-035, an inhibitor of acyl CoA:cholesterol acyl transferase activity, to prevent re-esterification of liberated cholesterol and [^14C]oleate. Incubations proceeded for times ranging from 0 to 24 hours, following which the remaining quantities of [^14C]-labeled cholesteryl oleate in cells were measured to determine the rate of hydrolysis of cholesteryl ester. […] However, an equivalent amount of liposomes containing the synthetic peptide corresponding to amino acid residues 74-103 of murine SAA2.1 caused a 3-fold increase in cholesterol ester hydrolase activity in these cholesterol-laden murine cells. Newly confluent J774 cells were labeled with [^14C]-oleate during cholesterol loading with red blood cell membranes as described above. Cells were then incubated for up to 24 hours with 2 mL of DMEM containing 5% LPDS and 50 μg/mL of either native HDL, SAA-HDL, liposomes containing 2 μmoles of apoA-1, SAA1.1 or 2.1, or liposomes containing 0.5:mol synthetic peptides corresponding to amino acid residues 1-20 (SEQ ID NO:1), 21-50 (SEQ ID NO:2), 51-80 (SEQ ID NO:3) and 74-103 (SEQ ID NO:4) of murine SAA2.1. To determine the rate of cholesteryl ester hydrolysis, 2 μg/mL of the acyl CoA:cholesterol acyl transferase inhibitor Sandoz 58-035 (propanimide, 3-(decyldimethylsilyl)-N-[2-(4-methylphenyl)-1-phenylethyl]-(9Cl) was added during incubation with lipoproteins or liposomes to prevent […] and free cholesterol. To examine whether or not the rate of cholesteryl ester hydrolysis involved the lysosomal cholesteryl ester hydrolase, the cells were cultured in the presence of 50 μg/mL of either native HDL and chloroquine or SAA-HDL and chloroquine (100:M). Chloroquine is an agent that neutralizes the lysosomal proton gradient. At various time points, cellular lipids were extracted and analyzed for cholesteryl ester radioactivity as described above.

[2] = biological target: T1, acyl CoA:cholesterol acyl transferase (Mus musculus, UniProt Q61263); settings: intact murine macrophages and post-nuclear homogenates; Ely et al. 2001; cited from earlier work
T1 construct: The relative activity of acyl CoA:cholesterol acyl transferase was determined in cholesterol-laden cells; host or cells: J774 mouse macrophages, cholesterol-loaded
T1 sequence (Q61263 1-540): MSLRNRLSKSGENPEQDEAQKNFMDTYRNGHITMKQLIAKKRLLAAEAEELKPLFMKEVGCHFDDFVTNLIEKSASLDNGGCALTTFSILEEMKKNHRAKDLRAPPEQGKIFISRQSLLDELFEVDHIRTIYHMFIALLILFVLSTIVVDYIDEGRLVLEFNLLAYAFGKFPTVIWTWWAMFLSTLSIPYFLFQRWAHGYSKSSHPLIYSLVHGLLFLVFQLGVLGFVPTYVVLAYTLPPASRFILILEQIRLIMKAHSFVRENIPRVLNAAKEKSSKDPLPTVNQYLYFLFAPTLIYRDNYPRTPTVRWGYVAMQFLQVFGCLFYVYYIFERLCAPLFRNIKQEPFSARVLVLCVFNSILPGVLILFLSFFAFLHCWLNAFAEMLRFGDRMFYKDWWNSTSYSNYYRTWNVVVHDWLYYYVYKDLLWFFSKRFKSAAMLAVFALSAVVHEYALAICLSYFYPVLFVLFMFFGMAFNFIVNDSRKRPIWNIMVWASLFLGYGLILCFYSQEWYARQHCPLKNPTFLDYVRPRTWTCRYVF

[3] = biological target: T1, acyl CoA:cholesterol acyl transferase; experiment: Incorporation of [14C]oleate into cholesteryl ester in cholesterol-laden macrophages (ACAT activity); assay type: cell-based, murine; settings: lipoproteins or protein liposomes; tissue culture
Description: The incorporation of [^14C]oleate into cholesteryl ester was used as a measure of acyl CoA:cholesterol acyl transferase activity to identify compositions inhibiting the enzyme activity. The relative acyl CoA:cholesterol acyl transferase activity was determined in cholesterol-laden murine cells that had been cultured in medium in the absence of liposomes or in the presence of protein-free liposomes or liposomes containing 0.5 μM synthetic peptides corresponding to amino acids 1-20, 21-50, 51-80 and 74-103 of murine SAA2.1.
To load the cells with cholesterol, nearly confluent mono-layers were washed 3 times with phosphate buffered saline containing 2 mg/mL fatty acid-free bovine serum albumin (PBS-BSA) and incubated for 5 hours in DMEM supplemented with 5% lipoprotein-depleted serum (LPDS) (d>1.25 g/mL) and 175 μg of red blood cell membrane cholesterol. For the purpose of pool equilibration of added cholesterol, cell cultures were rinsed twice with PBS-BSA and incubated overnight in DMEM containing 5% LPDS. The relative activity of acyl CoA:cholesterol acyl transferase was determined in cholesterol-laden cells that had been cultured in medium containing no liposomes, protein-free liposomes or liposomes containing 0.5:M synthetic peptides corresponding to amino acid residues 1-20 (SEQ ID NO:1), 21-50 (SEQ ID NO:2), 51-80 (SEQ ID NO:3) or 74-103 (SEQ ID NO:4) of murine SAA2.1, respectively. Following 3 hours incubation with the above media, [^14C]-oleate was added and the cells were incubated for another 3 hour period (Mendez et al. J. Clin. Invest. 1994 94:1698-1705; Oram et al. Arterioscler. Thromb. 1991 11:403-414). Cells were chilled on ice and washed twice with PBS-BSA and twice with PBS. After addition of [^3H]-cholesteryl oleate (6000 dpm/well) as an internal standard, the lipids were extracted from the labeled cells and analyzed by thin-layer chromatography as described by Mendez et al. (J. Clin. Invest. 1994 94:1698-1705) and Oram et al. (Arterioscler. Thromb. 1991 11:403-414). The radioactivity in appropriate spots was measured to determine the incorporation of radioactivity into cholesteryl esters as a measure of acyl CoA:cholesterol acyl transferase activity.

J774 macrophages = experiment: Cholesterol efflux from cholesterol-laden J774 macrophages to apolipoprotein liposomes with 8-bromo-cAMP or methyl-β-cyclodextrin; assay type: cell-based, mouse; settings: 8-bromo-cAMP 0.3 mM, 12 hours; Sandoz 58-035 present
Source text: The export process of cholesterol is coupled to the ATP binding cassette transporter (ABCA1) pathway. Lipid efflux to apolipoproteins has been shown previously to be stimulated by treatment of murine macrophages with cAMP analogues (Lin et al. 2002 Biochem Biophys Res. Commun. 290:663-669; Oram et al. 2000 J. Biol. Chem. 275:34508-34511). Also, the expression of ABCA1 is induced by cAMP treatment (Lin et al. 2002 Biochem Biophys Res. Commun. 290:663-669; Oram et al. 2000 J. Biol. Chem. 275:34508-34511). The inventors herein examined the effect of 8-bromo-cAMP (0.3 mM) on cholesterol efflux by liposomes containing various apolipoproteins when incubated with cholesterol-laden J774 macrophages. Such cells were pre-labeled with [^3H]-cholesterol in the presence of Sandoz 58-035, an ACAT inhibitor, to ensure that all of the radiolabeled cholesterol released from the cells was derived from the un-esterified cholesterol pool, and the cells were treated for 12 hours with 8-bromo-cAMP. This was followed by incubation with various acceptors. The fractional release of cellular labeled cholesterol was determined as a function of time.
To investigate whether an apolipoprotein free cholesterol acceptor such as cyclodextrin has the ability to catalyze the removal of cholesterol from macrophages, cholesterol-loaded and labeled J774 cells were incubated with liposomes and methyl-β-cyclodextrin (0.1 mM) (CD).
To examine whether cholesterol export from J774 cells to medium containing liposomes containing 2 μM murine apoA-1, SAA1.1 or SAA2.1 is a cAMP-dependent process, the radio-labeled cholesterol-laden cells were incubated overnight with 8-Br-cAMP (0.3 mM), prior to the addition of liposomes containing 2 μM murine apoA-1, SAA1.1 or SAA2.1 to the culture medium. Cholesterol efflux to the medium was then determined at the indicated time points as described above. Efflux of radioactive label to the medium was calculated as a percentage of total counts in each well.

[4] = biological target: T1, acyl CoA:cholesterol acyl transferase; experiment: ACAT activity in macrophage post-nuclear homogenates; assay type: biochemical, murine; settings: macrophage post-nuclear homogenates as enzyme source
Source text: The in vitro effects of acute phase-HDL (AP-HDL;HDL-SAA) on acyl CoA:cholesterol acyl transferase and cholesterol ester hydrolase activities and on cellular cholesterol export were studied by the inventors using purified enzymes, cell homogenates, and whole cells. […] In contrast, murine SAA1.1 and apoA-1 had no effect. […] Using macrophages preloaded with radio-labeled cholesterol and injected intravenously into either inflamed or un-inflamed mice, it was shown that the inflamed mice, which have high SAA2.1 levels, effluxed cholesterol more rapidly and to a greater extent (6-fold greater) than their un-inflamed counterparts.

GFFSFIGEAFQGAGDMWRAY [SEQ ID NO:5, synthetic peptide, residues 1-20 of murine SAA1.1]
cholesterol efflux, time course (FIG. 4) (THP-1 cells): inactive

RGFFSFIGEAFQGAGDMWRAY [SEQ ID NO:7, residues 1-20 of murine SAA1.1 plus an arginine at the N-terminus]
cholesterol efflux, time course (FIG. 4) (THP-1 cells): effectively increased cholesterol efflux

GFFSFVHEAFQGAGDM [murine SAA2.11-16, 16-mer released by cyanogen bromide cleavage of murine SAA2.1, residues 1-16, reference compound]
effect on cholesterol ester hydrolase activity ([1]; fragment released by cyanogen bromide cleavage): produced no effect | macrophage ACAT activity [2]: profound effect inhibiting ACAT activity in a dose-dependent manner

B1: apoA-1: apolipoprotein isolated from acute phase murine plasma, reconstituted in liposomes (protein, UniProt Q00623 25-264, looked up)
Apolipoprotein A-I: DEPQSQWDKVKDFANVYVDAVKDSGRDYVSQFESSSLGQQLNLNLLENWDTLGSTVSQLQERLGPLTRDFWDNLEKETDWVRQEMNKDLEEVKQKVQPYLDEFQKKWKEDVELYRQKVAPLGAELQESARQKLQELQGRLSPVAEEFRDRMRTHVDSLRTQLAPHSEQMRESLAQRLAELKSNPTLNEYHTRAKTHLKTLGEKARPALEDLRHSLMPMLETLKTQVQSVIDKASETLTAQ
modifications: reconstituted in liposomes
cholesterol ester hydrolase activity in intact cholesterol-laden macrophages ([1]; lipoproteins or protein liposomes, tissue culture): no effect on enzyme activities | acyl CoA:cholesterol acyl transferase activity in intact cholesterol-laden macrophages [3]: no effect on enzyme activities | increase in the initial rate of cholesterol efflux to liposomes after cAMP pre-treatment versus untreated cells (J774 macrophages): 32.7% | acyl CoA:cholesterol acyl transferase activity [4]: had no effect
